Assay results as given in PMC8830441, “Interaction of TLK1 and AKTIP as a Potential Regulator of AKT Activation in Castration-Resistant Prostate Cancer Progression” (Pathophysiology, 2021).

Biological target: T1, Full-length, wild-type recombinant His-tagged TLK1B (human, UniProt Q9UKI8-3 1-549)
T1 construct: wild-type, full-length TLK1B; also called His-TLK1B; recombinant TLK1; source: bacterial expression plasmid, recombinant, purified according to the published literature
T1 sequence (looked up): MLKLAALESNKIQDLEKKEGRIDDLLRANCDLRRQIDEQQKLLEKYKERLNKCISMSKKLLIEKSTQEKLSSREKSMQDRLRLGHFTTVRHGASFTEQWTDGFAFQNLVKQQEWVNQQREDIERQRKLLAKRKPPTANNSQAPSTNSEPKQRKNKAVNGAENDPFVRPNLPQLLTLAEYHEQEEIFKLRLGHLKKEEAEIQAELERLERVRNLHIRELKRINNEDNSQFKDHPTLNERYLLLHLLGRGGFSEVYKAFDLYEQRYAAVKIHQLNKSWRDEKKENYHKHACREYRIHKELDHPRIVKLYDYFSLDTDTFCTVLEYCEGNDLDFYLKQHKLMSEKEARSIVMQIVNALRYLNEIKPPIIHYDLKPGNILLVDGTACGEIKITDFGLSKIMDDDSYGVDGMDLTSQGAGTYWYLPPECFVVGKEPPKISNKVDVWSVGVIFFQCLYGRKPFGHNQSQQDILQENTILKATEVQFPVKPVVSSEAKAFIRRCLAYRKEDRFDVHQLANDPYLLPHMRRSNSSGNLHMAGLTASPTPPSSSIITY
Assay: pull-down; His-TLK1B and GST-AKTIP, 1 µg of each, incubated on ice 30 min, isolated on Ni-NTA agarose beads, washed with cell lysis buffer, WB for AKTIP
Settings: both partners purified

binding result: binds
B1: wild-type full-length human GST-AKTIP (natural protein, UniProt Q9H8T0 1-292, looked up)
chain: MNPFWSMSTSSVRKRSEGEEKTLTGDVKTSPPRTAPKKQLPSIPKNALPITKPTSPAPAAQSTNGTHASYGPFYLEYSLLAEFTLVVKQKLPGVYVQPSYRSALMWFGVIFIRHGLYQDGVFKFTVYIPDNYPDGDCPRLVFDIPVFHPLVDPTSGELDVKRAFAKWRRNHNHIWQVLMYARRVFYKIDTASPLNPEAAVLYEKDIQLFKSKVVDSVKVCTARLFDQPKIEDPYAISFSPWNPSVHDEAREKMLTQKKPEEQHNKSVHVAGLSWVKPGSVQPFSKEEKTVAT
notes: also called GST-tagged AKTIP; source: bacterial expression plasmid, recombinant, purified from bacteria according to the published literature
